From article PMC8041713, “Identification and biochemical characterisation of tyrosine aminotransferase from Anthoceros agrestis unveils the conceivable entry point into rosmarinic acid biosynthesis in hornworts” (Planta, 2021)

Key:
Assay in all cases: purified protein
purified protein [1] = substrate: O=C(O)CC(=O)C(=O)O; settings: co-substrate 6 mM L-tyrosine, 0.48 mM PLP, 1 M Tris/HCl pH 8.5, 40 °C
purified protein [2] = substrate: CC(=O)C(=O)O; type: biochemical, Anthoceros agrestis; settings: co-substrate 6 mM L-tyrosine, 0.48 mM PLP, 1 M Tris/HCl pH 8.5, 40 °C
purified protein [3] = substrate: N[C@@H](Cc1ccc(O)cc1)C(=O)O; type: biochemical, Anthoceros agrestis; settings: co-substrate 80 mM 2-oxoglutarate, 0.48 mM PLP, 1 M Tris/HCl pH 8.5, 40 °C
purified protein [4] = substrate: N[C@@H](Cc1ccccc1)C(=O)O; type: biochemical, Anthoceros agrestis; settings: co-substrate 80 mM 2-oxoglutarate, 0.48 mM PLP, 1 M Tris/HCl pH 8.5, 40 °C
purified protein [5] = substrate: O=C(O)C(=O)Cc1ccccc1; type: biochemical, Anthoceros agrestis; settings: co-substrate 6 mM L-tyrosine, 0.48 mM PLP, 1 M Tris/HCl pH 8.5, 40 °C
purified protein [6] = substrate: O=C(O)CCC(=O)C(=O)O; type: biochemical, Anthoceros agrestis; settings: co-substrate 6 mM L-tyrosine, 0.48 mM PLP, 1 M Tris/HCl pH 8.5, 40 °C

B1: AaTAT (tyrosine aminotransferase) (Anthoceros agrestis) (protein)
chain: MATVLNQKRQAEILHGNGVEGGGGGLAVSKIMSKAVVGKPPVARKPAGKTVDKEWNVRPRIAALESRNPIRDIVETKLKPNPNLGKKPISLAQGDPTVYGHLKVPESACAALAEVATSYKYNGYAHSAGILECRSAVADFHSEHLPFELTPEDVGIVVGCSQAIEFSIACLAAEGSNMLVPRPGFPIYDTFCRYYGVEVRYYDLLPERGWEVDLEQVAELADDDTAAMILCNPSNPCGTSFSYQHLSQIAGLCEKLKLPIISDEIYEHMLFGEKKFTPMATFSLQVPVLTVGGISKRWLAPGWRLGWILICDPCCILEKSGVVEALKRIMQMTIGTSVLVQAAVPAMLQNTTPEFYKQTMKTLEDGCDCCYRRIQGIVGLDVPTKPDGAMYMMAKVDPSAFKDIPDDTVFAEKLVKEENIVVLPGSAFGIHNWLRLVFATPVYMLEEAFDRIEAFCLRHASVQN
notes: full length, 464 residues (1395 bp), N-terminal 6xHis tag kept, pET-15b, E. coli SoluBL21, Ni-NTA
Purified protein [1]
  Km: 4.05 ± 1.44 mM
  Vmax: 0.756 µmol/min/mg
  kcat: 0.7 s⁻¹
  kcat/Km: 200 M⁻¹ s⁻¹
Purified protein [2]
  Km: 81.14 ± 15.12 mM
  Vmax: 13.4 µmol/min/mg
  kcat: 11.9 ± 1.6 s⁻¹
  kcat/Km: 150 ± 20 M⁻¹ s⁻¹
Purified protein [3]
  Km: 0.53 ± 0.05 mM
  Vmax: 55.3 µmol/min/mg
  kcat: 48.9 ± 7.6 s⁻¹
  kcat/Km: 91700 ± 9800 M⁻¹ s⁻¹
Purified protein [4]
  Km: 70.47 ± 4.18 mM
  Vmax: 134 µmol/min/mg
  kcat: 119 ± 26.9 s⁻¹
  kcat/Km: 1700 ± 400 M⁻¹ s⁻¹
Purified protein [5]
  Km: 7.92 ± 2.35 mM
  Vmax: 31.8 µmol/min/mg
  kcat: 28.2 ± 6.2 s⁻¹
  kcat/Km: 3900 ± 1400 M⁻¹ s⁻¹
Purified protein [6]
  Km: 15.13 ± 1.34 mM
  Vmax: 82.6 µmol/min/mg
  kcat: 73.1 ± 5.2 s⁻¹
  kcat/Km: 4900 ± 300 M⁻¹ s⁻¹
